# Molecular target: CNTF receptor expressed on TF-1.CN5a.1 (ATCC CRL-2512) cells (UniProt P26992)
# Experiment: cell-based or functional assay
# Chain of UniProt P26992 (P26992 23-342 limits assumed): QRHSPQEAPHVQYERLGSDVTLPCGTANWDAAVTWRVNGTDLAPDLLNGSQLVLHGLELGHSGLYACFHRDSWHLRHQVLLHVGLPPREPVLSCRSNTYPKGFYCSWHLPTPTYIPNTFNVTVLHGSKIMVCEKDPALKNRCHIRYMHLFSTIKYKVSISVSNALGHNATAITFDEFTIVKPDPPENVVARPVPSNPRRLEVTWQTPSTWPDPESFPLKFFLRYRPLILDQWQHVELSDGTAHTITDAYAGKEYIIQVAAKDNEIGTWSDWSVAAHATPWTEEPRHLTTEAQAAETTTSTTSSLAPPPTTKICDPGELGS
substance,measurement,value
CNTF control protein (Life Technologies) (ligand),"EC50, TF-1.CN5a.1 cell proliferation",0.11 pM
